Patent US10590193 (dated 2020)
Each block holds one binder with its values, some of them ahead of it.

Columns and labels:
[1] = target: T1, human VEGF165 (human, UniProt P15692); assay: SPR, pH 5
T1 chain: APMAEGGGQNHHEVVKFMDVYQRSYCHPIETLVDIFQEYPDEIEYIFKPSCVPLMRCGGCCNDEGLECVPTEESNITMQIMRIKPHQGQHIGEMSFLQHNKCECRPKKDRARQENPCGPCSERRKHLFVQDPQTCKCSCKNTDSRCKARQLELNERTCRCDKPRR

[2] = target: T1, human VEGF165; assay: SPR, pH 7.4
[3] = target: T1, human VEGF165; assay: SPR, pH 5
[4] = target: T2, rat VEGF164 (rat, UniProt P16612); assay: SPR, pH 5
T2 chain: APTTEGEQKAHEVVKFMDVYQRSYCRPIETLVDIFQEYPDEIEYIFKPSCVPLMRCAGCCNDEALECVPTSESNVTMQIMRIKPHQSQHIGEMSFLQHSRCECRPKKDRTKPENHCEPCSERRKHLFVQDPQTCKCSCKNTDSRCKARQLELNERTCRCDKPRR

[5] = target: T3, mouse VEGF164 (mouse, UniProt Q00731); assay: SPR, pH 7.4
T3 chain: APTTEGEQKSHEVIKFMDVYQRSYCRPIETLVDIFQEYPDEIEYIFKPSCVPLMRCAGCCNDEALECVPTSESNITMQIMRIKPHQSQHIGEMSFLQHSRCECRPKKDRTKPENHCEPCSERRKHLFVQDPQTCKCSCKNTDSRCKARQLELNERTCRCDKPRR

[6] = target: T2, rat VEGF164; assay: SPR, pH 7.4
[7] = target: T3, mouse VEGF164; assay: SPR, pH 5
[8] = target: T1, human VEGF165; assay: SPR, pH 5
[9] = target: T1, human VEGF165; assay: SPR, pH 7.4
[10] = target: T2, rat VEGF164; assay: SPR, pH 5
[11] = target: T4, human PlGF (human, UniProt P49763); assay: SPR, pH 5
T4 chain: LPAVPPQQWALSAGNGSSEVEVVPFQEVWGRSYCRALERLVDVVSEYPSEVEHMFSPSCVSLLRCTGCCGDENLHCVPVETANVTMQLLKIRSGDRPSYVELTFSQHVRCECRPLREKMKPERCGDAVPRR

[12] = target: T5, human VEGF110 (human, UniProt P15692); assay: SPR, pH 5
T5 chain: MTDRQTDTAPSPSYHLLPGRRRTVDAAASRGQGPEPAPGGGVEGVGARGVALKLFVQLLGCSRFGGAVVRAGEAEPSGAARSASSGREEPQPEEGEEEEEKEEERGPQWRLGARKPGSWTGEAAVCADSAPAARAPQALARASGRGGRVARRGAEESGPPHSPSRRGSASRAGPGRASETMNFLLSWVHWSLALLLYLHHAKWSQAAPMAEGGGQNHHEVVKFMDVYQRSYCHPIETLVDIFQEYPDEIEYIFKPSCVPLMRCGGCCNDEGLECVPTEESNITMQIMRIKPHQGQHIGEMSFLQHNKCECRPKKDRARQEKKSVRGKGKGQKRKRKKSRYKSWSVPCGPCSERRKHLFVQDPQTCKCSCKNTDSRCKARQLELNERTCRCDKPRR

[13] = target: T3, mouse VEGF164; assay: SPR, pH 5
[14] = target: T6, human VEGF121 (human, UniProt P15692); assay: SPR, pH 5
T6 chain: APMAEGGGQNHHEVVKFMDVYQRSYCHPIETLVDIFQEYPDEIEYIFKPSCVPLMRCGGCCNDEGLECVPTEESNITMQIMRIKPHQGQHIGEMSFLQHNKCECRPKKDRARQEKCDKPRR

[15] = target: T1, human VEGF165; assay: competition, VEGFR2 ELISA

B2: 578minmax (903) (antibody, V domains shown)
VH: EVQLVESGGGLVQPGGSLRLSCTASGFSLTDYYYMTWVRQAPGKGLEWVGFIDPDDDPYYATWAKGRFTISRDTSKNTVYLQMNSLRAEDTAVYYCAGGDHNSGWGLDIWGQGTLVTVSS
VL: EIVMTQSPSTLSASVGDRVIITCQASEIIHSWLAWYQQKPGKAPKLLIYLASTLASGVPSRFSGSGSGAEFTLTISSLQPDDFATYYCQNVYLASTNGANFGQGTKLTVLG
Kd [3]: 0.625 nM
Kd [4]: 0.748 nM
Kd [5]: 0.0273 nM
Kd [6]: 0.0219 nM
Kd [7]: 0.567 nM

B4: 511-max (antibody, V domains shown)
VH: EVQLVESGGGLVQPGGSLRLSCTVSGFSLNTYYMNWVRQAPGKGLEWVGIIAPDDTTYYASWAKSRSTISRDTSKNTVYLQMNSLRAEDTAVYYCARSGDTTAWGADIWGQGTLVTVSS
VL: EIVMTQSPSTLSASVGDRVIITCQASQSINIWLSWYQQKPGKAPKLLIYRASTLASGVPSRFSGSGSGTEFTLTISSLQPDDFATYYCQANYAYSAGYGAAFGQGTKLTVLG
Kd [10]: 0.106 nM
binding result [11]: no binding
Kd [12]: 0.197 nM
Kd [13]: 0.0613 nM
Kd [1]: 0.0667 nM
Kd [14]: 0.214 nM
EC50 [15]: 0.822 nM
Kd [9]: 0.0856 nM

Results, then the binder that gave them:

Kd [1]: 10.6 nM
binding result [2]: no binding
B1: 610-min (antibody, V domains shown)
VH: EVQLVESGGGLVQPGGSLRLSCAASGIDFSGAYYMGWVRQAPGKGLEWVSYIDYDGDRYYASWAKGRFTISRDNSKNTLYLQMNSLRAEDTAVYYCAKSDYSSGWGTDIWGQGTLVTVSS
VL: EIVMTQSPSTLSASVGDRVIITCQASQSISSWLSWYQQKPGKAPKLLIYQASTLASGVPSRFSGSGSGAEFTLTISSLQPDDFATYYCQNNYGFRSYGGAFGQGTKLTVLG

binding result [8]: no binding
Kd [9]: 28.9 nM
B3: 435-min (antibody, V domains shown)
VH: EVQLVESGGGLVQPGGSLRLSCAASGFSLNTNYWMCWVRQAPGKGLEWVSCMYTGSYNRAYYASWAKGRFTISRDNSKNTLYLQMNSLRAEDTAVYYCAKGSNWYSDLWGQGTLVTVSS
VL: EIVMTQSPSTLSASVGDRVIITCQASQSIGSSLAWYQQKPGKAPKLLIYTAANLASGVPSRFSGSGSGAEFTLTISSLQPDDFATYYCQNFATSDTVTFGQGTKLTVLG
